A protein production outcome set (Wang et al. 2014)

Assay: label from the status in PepcDB records
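Further: failed if final PepcDB status was selected cloned or expressed and not failed if soluble or beyond.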

Sequence	protein production
MAIARALRDELSFGAVSRRENPVSAHIPYSRHVSDEVIKTQDGMLMSFVHMSGLCFETIDIAEINSRLLGRNDLIRGLANSRYAIYSHIVRREVKPAIESSFENKFCQELDQRYTAALRTQRMFVNDIYLTIVRRELQGTVGTADLVIRKLLGRRAADGRSSSEERALIELTDVMKAVRESLQAYGARVLTVVKRNDVWHSEPLEFLVQLVNGGFPRPMALPRMKLAEALATKRLFFGPNALEIRGAFPGETRYGAIISVGEYPSITGPGMLNPMLKVPHEFIVTQSFAIIDKPQALTQMERVGRKIDMSDEADSIVGDQLGEARDELLSSEALYGLHHLTVLCLGKTMDDVARCVTDVGTALTEVSALWVREDLNCEPAFWATLPGNFAYVARKSMISSKNMAGFSAFHNYPSGRTGGVHWGMPISVLETTSQTAYFFNFHVRDLGNFTLNGPSGSGKTVLLGFLAAQAQRITPRPKLVMIDKDRGLDIFVRSLGGRYEVLKAGEPSGFNPLRLPDTPRNREFLFQLFSFILRRSDGYAHSTREEQVIRNAIAQVASAPPEGRTMEEFAELLRGAMRAGDDDLYSRLQPWMRPDQRGWLFNNAEDSFSMSSIFGFDMTSVLSDATTSTAALLYIFHRIEELLDGQPVMIFLDEGWKLLDNDIFSYFIKDKLKTIRKLNGIIGFGTQSAADIVKSSIANTLIEQTPTNIFFPNPKADEESHRAFGLSEREIKWIRETPPEARKFLIKHDQDSVIARLNLGAMPDAIKILSGRIETVQELDALRARVGDDPDVWLPVFLGRDPE	failed
MQNYGRLFELVPGKLELFKKLQLLTEQFKNYCLLSRNFEAANTVFGQIEEIYSGILKKEPGHILVSAHLLFLYETSADLYTKLGKIEKAEESYLQALDFLSKKQRASPGNTTYVRQQGKVYRMLGRAFYEAGDSGKAAQYAGKALEILRELAGKNPEDLHYQYEISDDFTGLGKLFEDIGDIERAKECHMQEINIYRNIHERDPEDEVSEANIAATLDRIGHLYAGKGETETAKQYYEQGLEAYEKLSESYPEDIDHEVGIANTLGYIGKQYSDPEPETALKYYKKALGILEDVVQTFPDVPVYKEDLIQTLGYLESLASGQKQYENAILYRERITELSRQLASENPENFDYKKELAISFKHMGLLYEKAEKHELAKQQYSKSADVFRQVLQDENEKDLMKGLLALDLQKQATILIHEKNYGLAKEYLALLRDYYEALYEKDPEKPENWKAVCEIRTLCGILHKSMGNYDAAIQIYKSVFSILHKHPVSDPDNPDYQSIIGVLYTQLGIAYHLADEYDKSKEAFEKSIPINTRLLDEETENFLHMGDMAVALAEYSKLLTSMGMKKEAEEYAAKADEIKEKIMKKFRFDEYTVEDGDKKAL	failed
MSYKVLPLSEVMSHEFGLIEGNFHNISEADIASAIPSHLTFEQLKQHLYEGNLALVSDTPQTPALLSYNDPIGPKTWRLNSEVISELSDDAANNLLAITKTTRATGGYRSCIGETSTLERVYTPQPIATESEEEITKEFEYSFEVGCSDATIKKMVHSDFALAKTEKENAVTRWEQTNTEQGTRYTALCVFDEPKRLNIHIADDNLGLTPLEAVTLQKAGSCKTDEGFIPVVPAVRLGERLGLPTEGYYYHFNDGELVQEYKILGEEKWAFYATQSTQDKLNDERGFTKDQSAILVYWKLADQIIENQYIIYLERQITREELDNLSEDWLCENGIKLDIPALFDAVKQPEEARSEGNNDETQAEQTAATHTVTVGEDWQSIAELYGMGAKALLLLNPVFEADPLSLAVGDEIIVAEKQQQQAPDKKNTFPPLRPQTYNNIRNSHYQHSDPLLGLTKYRAINTADCIEGDVVILNLKDATSSIVFAKSCTRPEGCIEIGDQQESISNFGPWSFFFAQANANPAAVIPAIQATQAQMAMGSSAAVAGSPEQMQQTQTAAMQLDKLAGTLKEKIVEGYRWQVEGIGALFAMQQSLFGDNTQYTDQDLRQVTTAQSRVRVHITEPQGGEFYPHVQGYHVDDTRIPIKYVKQGNNGQLSVAIEENGPTIYWTPEENGEASWQTTPDHSDGFEKDDILVTPIHSDSDANVTVTPAPEEKDWRDAILVFPESSGIAPLYVVYKESPRDKPGVVTGKGEDIFGIWLADAGKDLGAPIPSQIADKLRGREFSSFDAFREGFWYAVGEDQTLINQFSRANQRLIKRGRSPFSLPSEQVGGRQRYELHHKEEIQYGGEVFHVDNLCVLTPKRHISIHKDQ	failed
MNSVRKIKCLFLIFLDILFINLGYFISLCFEYGKEMKIEYFFNIRNLIILAIFTNILIFCFFNLYKNIWHMAGISECIRCLIASSISSILLILYKFIFNMDVTIVFLINSSILICMFSLLTRMSIRIFRKIYFPYKLESNLRKNVLIVGAGHCGRIVIDEMNKNNKFNPIGIVDDDLNKKGTFLNGVKVLGNRDDIEKICKRIKVDIILIAISNLSSNDKDEIIKRCENTKIKVKIIPSIYDLIDGNVKLTNIRDIDLRDLLGRDETRLDKEEVNNYIKEKIVIVTGGGGSIGSELCRQIAVFNPKKLIILDIYENYAYELENELKRNFKNLDLEVIIASIRDKSRLKKIFDKYKPDLIFHAAAHKHVPLMENNPEEAIKNNVLGTLNVAECADEFNLEKFVFISTDKAVNPTNIMGATKRIGEMIIQAMNEVSKTDFVAVRFGNVLGSNGSVIPLFIEQIKNGGPVTLTHKDITRYFMLIPEAAQLVLQAGAYAKGGEIFVLDMGKPVKIYDLTEKLIRLSGFEPNKDIQIKIVGLRPGEKLYEELILSEEELKKTKNEKIFILSPFKFDIKEIKKKIVELLNVALNEDKKAIKEKLKEIVKNYRDLEQIDFI	failed
DWLDLNTTSSVETGQAIVTLDDAQIALNGIYRLASGHSYYGDNYWYYGDCRAADVQARITKGDGKRVSPYYEYNVLASDNLNIVLPWNTVYKVIRQTNNLIQKIESGSIQSSDTKELNRIKSEALVMRGLSLFNLTRLFGMPYTNDKGASLGVPIETSPSDPTHKPSRSTVAQCYEQVVSDMSNALSGLRQETSNGYINYWAAQALLSRVYLNMGEYQKAYDAATDVIKNNGGRYQLYSYEEYPNVWGQDFQSESLFELYITLSEPSGGTGGEGAPMVYANEATVDWNNLILSEDFLNLLNEDPKDVRHCLTKESVIENNTGLPAAAMHEKVYLAKFPGKTGDDPKTNNICIIRLSEVYLNAAEAGLKKGTDIEEAQGYLNDIISRRTTDTSQQVSTETFTLDRILKERRKELVGEGEVFYDYLRNGLAIERKGSWHLETLKASNAQKIEATDLRIALPIPQSEIDANPNIQQNPR	not failed
MGLSVGIVGLPNVGKSSTFNALTKTQNAQSANYPFCTIEPNKAIVNVPDRRLDALAQIVKPERILHSVVEFVDIAGLIKGASKGEGLGNQFLANIKECEVILQVVRCFEDDNITHVNDKIDPLNDIETIELELILADIAALDKRIDRLQKALKSSKDAKNLLECALSLKTHLEELKPAKTFPLNTSEAFLELDKELRFLSHKKMIYVANVGEEDLNALNEHAKKVKNHAKEQNSEFVALCAKLEEEMVSMSGDEVKEFLQSLGVEESGLEKTIRLSFKELGLINYFTAGVKEVRSWTIKKGSSAPVAAGVIHKDFEKGFIRAETISYDDFIAYKGEAGAKEKGALRIEGKDYIVQDGDVLHFRFNI	failed
MAIRSALMNVMLIAVKKAAKGLVRDFGELENLQVSRKGPSDFVSNADLKAEKILKAELRKARPAYSFLMEESGAEDGADTSRRWIVDPLDGTTNFLHGIPHFAISVALEEKGEIVAGVIYNPILDELYTAEKGNGAFVNDRRLRVSGRRDLAESLFATGIPFQGKGGHARFLGQLAKVMAKTSGVRRIGAASLDLAYVAAGRVDGYWEEGLHPWDCAAGILLVKEAGGYVTTLDGKPDPLRQGSLLAANPLMHPLLGELLAEE	failed
MELLKHLSQRQYIDGEWVESANKNTRDIINPYNQEVIFTVSEGTKEDAERAILAARRAFESGEWSQETAETRGKKVRAIADKIKEHREALARLETLDTGKTLEESYADMDDIHNVFMYFAGLADKDGGEMIDSPIPDTESKIVKEPVGVVTQITPWNYPLLQASWKIAPALATGCSLVMKPSEITPLTTIRVFELMEEVGFPKGTINLILGAGSEVGDVMSGHKEVDLVSFTGGIETGKHIMKNAANNVTNIALELGGKNPNIIFDDADFELAVDQALNGGYFHAGQVCSAGSRILVQNSIKDKFEQALIDRVKKIKLGNGFDADTEMGPVISTEHRNKIESYMDVAKAEGATIAVGGKRPDRDDLKDGLFFEPTVITNCDTSMRIVQEEVFGPVVTVEGFETEQEAIQLANDSIYGLAGAVFSKDIGKAQRVANKLKLGTVWINDFHPYFAQAPWGGYKQSGIGRELGKEGLEEYLVSKHILTNTNPQLVNWFSK	not failed
MTMDGDSSTTDASQLGISADYIGGSHYVIQPHDDTEDSMNDHEDTNGSKESFREQDIYLPIANVARIMKNAIPQTGKIAKDAKECVQECVSEFISFITSEASERCHQEKRKTINGEDILFAMSTLGFDSYVEPLKLYLQKFREAMKGEKGIGGAVTATDGLSEELTEEAFTNQLPAGLITTDGQQQNVMVYTTSYQQISGVQQIQFS	failed
MEKVTFVRIADLENHNNDGGFWTVIDGKVYDIKDFQTQSLTENSILAQFAGEDPVVALEAALQFEDTRESMHAFCVGQYLEPDQEGVTIP	not failed
MTDATAEQSVTADADDKPEPYNGLPGAFPYAFRATDSLLFKAYVPVALLLSVAITLVFSFGLITQLAETGSVRGGTFTFSRSFFLFVGLLLVAPLLAPVLSVARRHRRTASSVAYDRALALSAFLFIGSIYLALLTSAPAELREPTQSAVVGFFYSLPPIAGVVPPMLATLGIYLTHRLLK	failed
AIASRAASLRAELTSLANAFEEERISSAERLDADLVRQAVEQAKPENLEQWKQVVHDATAKLQQFWEDSEQALIRETYALATSYLRESDDEVHRLQMTKKALEEQLETERRRSTRIEEQLAALQSRLLDSAAPAATTPADDARTQQEVLRSELQGFMQELVRNQRESLRVLQEELQRVREEASVREENLLRQIAHLKTELAVARTDNEVSSRQLRQLETSAGREEVQDELGPGTIWPPHLTPRRGHRRFQRHNRLEDAPAPPEF	failed
GSSGSSGNWIDVRYDLEKIESLIQSIHIDTTLYTDSDFHPSCKVTAMNCFLLELQVILHEYSNMTLNETVRNVLYLANSTLSSNKNVAESGCKECEELEEKTFTEFLQSFIRIVQMFINTS	not failed
MRRSRRAALAACLILAIAATPGAVLAQTVDELYASAVKARQARHFDEAVDLLRRALALKPDNADALVQLGFAELGRNDLAAARDAFSKALSLAPTYQDASFGLAEIEFRSGNLDAALPLAESVARAQPGNTDAAALVENIRKAMQAAGGEARKASVAAPRAKPRPDPVAGLMEQGRRLRTAGKLPEAEKVYRRALGLAPKNTDILVALGLIVGSSQRFDEAGHFFDRALAIKPGLLDARIGKIRMAIWQGDVPSARALVDDVLASSPDNVEALDLDAKVALLEADYTRAGQSFQRVLAIDPRNAEALVGIGDVRRAQGDDDAARQAYREALAIEPGSSDIEQRLAVPPPRKWRLDLGTEVSDLTNGLSDWTDSSAGLAYRLSPRTTISGRTRVATRFGRTDVQIEGRIDEAFSPAFSAYAFAAATPDADFLARYSIGAGASLQVMAAAKAFGPLSLNIDTRYDNFTNTNVTSVSPWVQGYIFDGRLGLSARWVHAADDIGTRADGYVLRVDLAMAQRFNLFGGYADAPEISDGTLVPTRTVFGGISWDVNDPLTLRASIAHEQRPTFDRSIFGLGLTARF	failed
MGRYILGITVLVTVVVAPLEAGLSSVALLALLAAFGIGVQVIAPWFIPLVRSVDTPDDQTTETLNRLRERAGLTVRDVRVLDTEQEGTANVIVRGAPGYRRLFVTSTFLDVFDDEMATALLAVQAGRQEARVRARLIGGLLIALVPVFAALADIGPLWPLVGASLGLLVVTLWVTRRGVRAADDYAAEGVGPDTVADALERYADVHDMEPPRRRLANPFSKSPPLGNRIDRLREQAGE	failed
MTIGEIIDCLNRRESIAIIAKRLEISPYTLSKKLRLIGYEYDGEQKKRIFVGDGEEPRHLQLQEATALQYAKTDYQLLIYEQLQSIYELLRKREEVIVPIMNISTEKKKRTFSINKEILAKLDVISESKGIQKSKLVEEALQQFLQQYDFNNTSHFDN	failed
MQVEETSIEEIQTKIKRLNSKAGQMKMDLHDLAEGLPTDYTQLMDVAAATYEIYRQLDELKQELKKLENAK	failed
